“And” between values parts separate entries of the source, which are not always exact repeats. Equal entries are not always repeated.
How the values were obtained:
[1] = Biotin-PGE2 ELISA (PGE2-biotinamide binding to captured IgG)
Description: Enzyme linked immunosorbent assays to screen for antibodies that bind prostaglandin E2 were performed according to at least one of the two following methods.
ELISA plates (Costar 3369, Corning, N.Y.) were coated with 50 μl of anti-host Fc IgG (Sigma, St. Louis, Mo.) at 2 μg/ml in PBS (Invitrogen Carlsbad, Calif.). Following an overnight incubation at 4° C., washed with PBS and the plate was blocked with 200 μl Superblock (Pierce #37535, Rockford, Ill.). The IgG containing samples were diluted to 1 μg/ml in Assay Buffer (10% Superblock in PBS containing 0.05% Surfactamps (Pierce #37535, Rockford, Ill.) and 50 μl/well added to each well and incubated for 1 hour at room temperature. Plates were washed four times with Tween-Tris Buffered Solution (TTBS). […] The titration curve samples were added to each IgG sample at 50 μl/well and incubated for 1 hour at room temperature. The plates were washed as previously described and 50 μl of 1:5000 dilution of streptavidin polyhrp40 (Fitzgerald Industries, Concord, Mass.) in Assay Buffer was added to each well and incubated for 45 minutes at room temperature. A final wash step was performed and the plates were developed using a single step TMB system (Sigma #T8665, St. Louis, Mo.) and 100 μl/well 2N H2SO4. Plates were read at 450 nm on a Molecular Devices Spectramax plate reader (Sunnyvale, Calif.). EC50 was determined using GraphPad Prism 5 (GraphPad Software, La Jolla, Calif.).

[2] = Pharmacokinetics of 2B5.8.0 in Sprague-Dawley rats; type: in vivo; settings: rat, IV 4 mg/kg
Description: (§1) Pharmacokinetic studies with mouse mAb 2B5.8.0 were carried out in Sprague Dawley rats and Balb/C mice. Male and female rats and mice were dosed intravenously or intraperitoneally (mice only) with a single dose of 4 mg/kg 2B5.8.0 and serum samples were analyzed using antigen capture based chemiluminescent MSD (Meso Scale Discovery) method (Meso Scale Discovery, Gaithersburg, Md.). Pharmacokinetic parameters were calculated by non-compartmental analysis using WinNonlin.
(§2) The following MSD assay was used to measure antibody concentration in rat and mouse serum. MSD streptavidin plates (Meso Scale Discovery, Gaithersburg, Md.) were washed with phosphate buffered saline containing 0.05% Tween-20 (Sigma, St. Louis, Mo.). Plates were blocked with 250 μL/well blocking solution (MSD Block, Meso Scale Discovery, diluted to 3% final concentration in PBS) for 1 hour, covered, with shaking (600 rpm) at room temperature. After washing, 70 μL of biotinylated PGE2 (Prostoglandin E2-biotinamide, Cayman Chemical, Ann Arbor, Mich., cat# 10006987, lot# 190831-191028, 0.01 ug/mL in assay buffer) was added to each well. The plates were covered and incubated with shaking (600 rpm) for 1 hour at room temperature
(§3) Prior to analysis, rat and mouse serum samples were thawed on ice, mixed gently, and centrifuged at 14,000 rpm for 3 minutes at 4° C. in an eppendorf centrifuge. Standard curve and control samples were prepared in rat and mouse serum. A Tecan Evo automated liquid handling station was used to dilute standard curve, high, medium, and low controls, and serum samples in assay buffer, keeping 1% final serum concentration constant. MSD plates were washed again and study samples, standard curve samples and blanks, as well as high, medium, and low controls were added (70 μL/well). The plates were covered, and incubated for 1 hour with shaking (600 rpm) at room temperature.
(§4) After incubation, the MSD plates were washed, and 70 μL of sulfo-tagged goat anti-mouse IgG (Meso Scale Discovery; diluted to 1 ug/mL in assay buffer) was added to each well. The MSD plates were covered, and incubated with shaking (600 rpm) for 1 hour at room temperature, then the plates were washed and developed with 2× Read Buffer (Meso Scale Discovery). Chemilumeniscence was measured within ten minutes on the MSD Sector Imager 6000.
(§5) Standard curves were analyzed using four-parameter logistic fit and sample concentrations were calculated by XLfit4 software version 2.2.1 Build 16, ([…].). Pharmacokinetic parameters were calculated for each animal using Winonlin software version 5.0.1 (Pharsight Corporation, Mountain View, Calif.) by noncompartmental analysis.
Surgically altered jugular vein cannulated, JVC) and regular male and female Sprague-Dawley Rats (approximately seven weeks old, weighing 240-390 grams) were purchased from Charles River Laboratories (Wilmington, Mass.). The animals were housed in rooms maintained at constant temperature and humidity under 12 hours light/dark cycle, fed with normal rodent chow and were allowed food and water ad libitum. Hydration and clinical conditions of the animals were monitored daily.
(§6) Male and female Balb/c mice (weighing approximately 0.025 kg) were purchased from Charles River Laboratories (Wilmington, Mass.). The animals were allowed food and water ad libitum. Blood samples were collected (0.2 mL from the rats via the tail vein and by cardiac puncture from the mice) at various timepoints (5 mice at each timepoint) allowed to clot for 30 minutes at room temperature, centrifuged for 3 minutes at 13,200 rpm, the serum transferred to eppendorf tubes and stored frozen at −80° C.

[3] = Pharmacokinetics of 2B5.8.0 in Balb/C mice; type: in vivo
Description: as §1, §2, §3, §4, §5, §6

[4] = mice, intraperitoneal, both sexes

B1: 2B5-8.0: recombinant anti-PGE2 antibody from solved 2B5 sequence; VH SEQ ID NO 42, VL SEQ ID NO 43 (antibody, V domains shown)
VH: QVQLQQSGPELVRPGSSVKISCKASGYTFTKYWLGWVKQRPGHGLEWIGDIYPGYDYTHYNEKFKDKATLTVDTSSSTAYMQLSSLTSEDSAIYYCARSDGSSTYWGQGTLVTVSA
VL: DVLMTQTPLSLPVSLGDQASISCTSSQNIVHSNGNTYLEWYLQRPGQSPKLLIYKVSNRFSGVPDRFSGSGSGTVFTLKISRVEAEDLGVYYCFQVSHVPYTFGGGTKLEIKR
[1]
  EC50: 1.03 nM
  ability to bind PGE2 in ELISA: potently bound to PGE2
[2]; female
  AUC0-∞: 12.0 ± 4.6 mg·h/mL
  CL: 0.37 ± 0.13 mL/h/kg
  MRT: 10.8 ± 3.5 days
  Vss: 88 ± 6.2 mL/kg
  Vz: 101 ± 13.1 mL/kg
[2]; female, 4 mg/kg
  T½: 8.9 days and 8.5 ± 2.2 days
[2]; male
  AUC0-∞: 9.9 ± 0.7 mg·h/mL
  CL: 0.41 ± 0.03 mL/h/kg
  MRT: 12.6 ± 1.6 days
  T½: 9.1 days
  Vss: 122 ± 18.5 mL/kg
  Vz: 127 ± 18.9 mL/kg
[3]; [4]
  Cmax: 37 to 49 µg/mL
  bioavailability: 65.8-72.0%
  half-life: 13.8 to 16.1 days
[3]; mouse, female, IP 4 mg/kg
  AUC0-∞: 16.1 mg·h/mL
  Cmax: 49.4 µg/mL
  F (%): 65.8%
  MRT: 19.3 days
  Tmax: 1 days
  T½: 13.8 days
[3]; mouse, female, IV 4 mg/kg
  AUC0-∞: 24.5 mg·h/mL
  CL: 0.16 mL/h/kg
  MRT: 22.8 days
  T½: 16.2 days
  Vss: 89 mL/kg
  Vz: 92 mL/kg
[3]; mouse, male, IP 4 mg/kg
  AUC0-∞: 19.4 mg·h/mL
  Cmax: 37.3 µg/mL
  F (%): 72%
  MRT: 23.4 days
  Tmax: 2 days
  T½: 16.1 days
[3]; mouse, male, IV 4 mg/kg
  AUC0-∞: 26.9 mg·h/mL
  CL: 0.15 mL/h/kg
  MRT: 37.5 days
  T½: 26.3 days
  Vss: 134 mL/kg
  Vz: 135 mL/kg

Reference: patent publication US8624002B2, “Prostaglandin E2 binding proteins and uses thereof” (AbbVie, Inc., priority 2008, dated 2014)
